Measurements published in publication PMC13041742, “Nonlinear stiffness of NompC gating spring and its implication in mechanotransduction” (Science Advances, 2026).

Molecular target: the molecule itself
Experiment: negative-stain EM with 2D class averaging; purified NompC-Δ12; raw micrographs and 2D class averages

B1: NompC-Δ12 (complex, Drosophila, UniProt E0A9E1 1-1732, looked up)
chain: MSQPRGGRGGGRGGGVGRKTPSSLTGPPDESATPSERATPASKADSDPKDDSSSNGDKKDMDLFPAPKPPSAGASIRDTANKVLGLAMKSEWTPIEAELKKLEKYVANVGEDGNHIPLAGVHDMNTGETPLHMACRACHPDIVRHLIETVKEKHGPDKATTYINSVNEDGATALHYTCQITKEEVKIPESDKQIVRMLLENGADVTLQTKTALETAFHYCAVAGNNDVLMEMISHMNPTDIQKAMNRQSSVGWTPLLIACHRGHMELVNNLLANHARVDVFDTEGRSALHLAAERGYLHVCDALLTNKAFINSKSRVGRTALHLAAMNGFTHLVKFLIKDHNAVIDILTLRKQTPLHLAAASGQMEVCQLLLELGANIDATDDLGQKPIHVAAQNNYSEVAKLFLQQHPSLVNATSKDGNTCAHIAAMQGSVKVIEELMKFDRSGVISARNKLTDATPLQLAAEGGHADVVKALVRAGASCTEENKAGFTAVHLAAQNGHGQVLDVLKSTNSLRINSKKLGLTPLHVAAYYGQADTVRELLTSVPATVKSETPTGQSLFGDLGTESGMTPLHLAAFSGNENVVRLLLNSAGVQVDAATIENGYNPLHLACFGGHMSVVGLLLSRSAELLQSQDRNGRTGLHIAAMHGHIQMVEILLGQGAEINATDRNGWTPLHCAAKAGHLEVVKLLCEAGASPKSETNYGCAAIWFAASEGHNEVLRYLMNKEHDTYGLMEDKRFVYNLMVVSKNHNNKPIQEFVLVSPAPVDTAAKLSNIYIVLSTKEKERAKDLVAAGKQCEAMATELLALAAGSDSAGKILQATDKRNVEFLDVLIENEQKEVIAHTVVQRYLQELWHGSLTWASWKILLLLVAFIVCPPVWIGFTFPMGHKFNKVPIIKFMSYLTSHIYLMIHLSIVGITPIYPVLRLSLVPYWYEVGLLIWLSGLLLFELTNPSDKSGLGSIKVLVLLLGMAGVGVHVSAFLFVSKEYWPTLVYCRNQCFALAFLLACVQILDFLSFHHLFGPWAIIIGDLLKDLARFLAVLAIFVFGFSMHIVALNQSFANFSPEDLRSFEKKNRNRGYFSDVRMHPINSFELLFFAVFGQTTTEQTQVDKIKNVATPTQPYWVEYLFKIVFGIYMLVSVVVLINLLIAMMSDTYQRIQAQSDIEWKFGLSKLIRNMHRTTTAPSPLNLVTTWFMWIVEKVKARMKKKKRPSLVQMMGIRQASPRTKAGAKWLSKIKKDSVALSQVHLSPLGSQASFSQANQNRIENVADWEAIAKKYRALVGDEEGGSLKDSDAESGSQEGSGGQQPPAQVGRRAIKATLADTTK
notes: NompC (no mechanoreceptor potential C), Drosophila, NP_001245891.1, lacking the N-terminal 12 ankyrin repeats (amino acids 126 to 533); Full-length NompC with an internal deletion of residues 126-533; also called truncated NompC-Δ12; NompC complex with the N-terminal 12 ARs removed; not shown: SpyTag, N-terminal, kept; enhanced green fluorescent protein (after a 3C cleavage site), C-terminal, …
- stoichiometry N: 4
